Entries after “also recorded” stand apart in the source; their conditions may differ.
Columns and labels:
[1] = target: T1, α3Na+/K+-ATPase (Mus musculus, UniProt Q6PIC6); assay: Na+ imaging (SBFI-AM) of cultured cortical cells; assay type: cell-based
[2] = system: layer V neurons in acute cortical slices; assay: Whole cell current clamp of layer V neurons in acute cortical slices; assay type: cell-based, mouse
[3] = target: T1, α3Na+/K+-ATPase; assay: Whole cell current clamp of cultured cortical neurons, channel blockers present; assay type: cell-based
[4] = system: cultured cortical neurons; assay: Glutamate excitotoxic injury of cultured cortical neurons, LDH in growth medium; assay type: cell-based; conditions: 10 minutes glutamate with C-Ag15; preliminary data
Description: FIG. 15. C-Ag15 is neuroprotective for excitotoxic injury. Cultured cortical eurons were treated for 10 minutes with the excitatory neurotransmitter glutamate in the presence of the indicated concentration of C-Ag15 and degree of neuronal injury assessed by monitoring the level of LDH in the growth medium. Data are expressed as a percentage of the LDH in sister cultures treated with glutamate alone. The neuroprotective effect of C-Ag15 is dose-dependent.

[5] = system: cardiac myocytes; assay: Spontaneous contraction frequency of cultured cardiac myocytes; assay type: cell-based, mouse
Description: FIG. 17. Cardiac myocyte contraction is agrin dependent. Cardiac myocytes were prepared from hearts of individual embryos produced by heterozygous pairings. The genotype of cultures was determined by PCR analysis of tissue samples from each embryo. Myocytes were maintained in 199 medium containing 10% FCS as described (Mitcheson et al., 1998). At 5 days in culture, the frequency of spontaneous contractions was determined by counting contractions in myocytes from 5 random fields at 300× magnification for 30 seconds. Contraction frequency is dependent on Agrn gene dosage such that Agrn−/−>Agrn+/−>Agrn+/+. Addition of C-Ag208 to the growth medium rescues the Agrn mutant phenotype whereas C-Ag15 increased the contraction frequency of wild type myocytes to a level similar to Agrn−/− cells. Bars show mean±SEM for a minimum of 2 independent platings from 3 embryos, except for Agrn+/−treated with C-Ag208, which was a single plating of 2 embryos. All data were collected blind with respect to genotype and agrin treatment. *** p≦0.001. ANOVA with Bonferroni post-hoc pair-wise comparison.
Quantitative studies confirmed and extended these observations by showing that the frequency of myocyte contraction is dependent on agrin gene dose: Agrn−/− myocyte contraction frequency is about 2-fold higher and Agrn+/− 1.5-fold higher than Agrn+/+ myocytes (FIG. 17). To learn whether the effect of the Agrn mutation on myocyte contraction is a direct result of the loss of agrin expression the effects of growing the cells in media supplemented with C-Ag208, an active agrin fragment, or C-Ag15, the agrin antagonist was next examined.

[6] = system: cerebellar neurons; assay: Fos expression in cerebellar neurons; assay type: cell-based, mouse; conditions: 1 nM C-Ag15 with 50 pM C-Ag95z8
Description: Mouse cortical cultures were prepared from newborn or 1-d-old ICR strain mice (Harlan) as described previously (Hilgenberg et al., 1999). For the first 24 h after plating, cells were maintained in neural basal medium (NBM) plus B27 supplements (Invitrogen), and in nonneuronal cell-conditioned NBM (cNBM) plus B27 thereafter, at 37° C. in humidified 5% CO2 atmosphere. To further reduce proliferation of nonneuronal cells, cultures on glass coverslips used for histology were treated with 5 μM 5-fluoro-2-deoxyuridine (Sigma-Aldrich) 3-4 d after plating. Hippocampal and cerebellar cultures were prepared in a similar manner. Experiments were performed on 10-14-d-old cultures. Agrin-deficient neuron cultures were prepared from cortices of embryonic d 18-19 fetuses resulting from matings between mice heterozygous for a mutation in the agrin gene (Gautam et al., 1996). Cultures were prepared and genotyped as described previously (Li et al., 1999), and were maintained as above.
Fos expression in cortical cultures was measured by in situ enzyme-linked immunoassay (Hilgenberg et al., 1999). In brief, 11-14-d-old neuronal cultures were treated for 10 min with agrin or other agent diluted in NBM or PBS, then washed in cNBM and returned to the incubator for 2 h. […] The level of Fos expression was determined by monitoring conversion of p-nitrophenyl phosphate to a soluble yellow reaction product at 405 nm. […]

[7] = system: agrin-deficient neurons; assay: Rescue of glutamate-induced Fos expression in agrin-deficient neuron cultures; assay type: cell-based, mouse
Description: FIG. 6 is a graph showing that the 20-kD COOH-terminal region of agrin is the minimal fragment sufficient to rescue an agrin-deficient phenotype. (A) 10-d-old wild-type (filled bars) or agrin-deficient (open bars) cultures were grown for 2 d in media supplemented to 5 nM with the indicated agrin fragment. Cultures were challenged for 5 min with 100 μM glutamate as described previously (Hilgenberg et al., 2002), and the levels of Fos expression were determined. Data were normalized to levels of glutamate-induced Fos expression in mocktreated wild-type cultures. Compared with mock, glutamate responses of homozygous agrin-deficient neurons were rescued to near wildtype levels by either the long C-Ag95z8/0 or short C-Ag20z8/0 fragments (***, P≦0.0005; **, P≦0.002; *, P≦0.02; paired t test). (B) To test the ability of C-Ag15 to antagonize agrin action, 10-d-old agrin-deficient neurons were maintained for 2 d in the presence of 5 nM C-Ag95z0 alone or in combination with 10 nM C-Ag15, and neuronal responses to glutamate were determined as above. […]
Fos expression in cortical cultures was measured by in situ enzyme-linked immunoassay (Hilgenberg et al., 1999). […] The level of Fos expression was determined by monitoring conversion of p-nitrophenyl phosphate to a soluble yellow reaction product at 405 nm.

B1: C-Ag15: 15-kD COOH-terminal fragment of agrin created by deleting 37 amino acids from the NH2 terminus of C-Ag20, SEQ. ID NO. 3 (protein)
chain: MDPWIGKAAERADYMALAIVDGHLQLSYDLASQPVVLRSTVKVNTNRWLRVRAHREHREGSLQVGNEAPVTSSSPLGATQLDTDGALWLGGLQKLPVGQPLPKAYGTGFVGCLRNVVGHRQLHLLEDAVTKPELRPCPTLNSKLGPEQKLISEEDLNSAVDHHHHHH
modifications: Synthetically produced sequence
[1]
  effect on Na+ increase induced by active agrin fragments: blocked
  effect on ouabain-induced increase in neuronal Na+: blocked; also recorded: significantly reduced
  neuronal intracellular Na+: no significant effect
[2]; in kainic acid
  time to repolarization after addition: ≤ 10 min
[2]; kainic acid 0.5 μM + C-Ag15
  membrane potential: −66.3±1.8 mV
[2]; kainic acid plus C-Ag15
  action potential frequency: 0.01±0.005 Hz
[2]; slices
  effect on response to C-Ag200: blocked
[2]; two spontaneously active neurons
  spontaneous action potentials: reversibly inhibited
[3]
  change in membrane potential: −1.0±0.4 mV
  effect on depolarization induced by active agrin fragments: effective in blocking depolarization
  effect on ouabain induced membrane depolarization: blocked
[4]
  neuronal injury, LDH in growth medium: neuroprotective; also recorded: dose-dependent
[5]; Agrn+/+ and Agrn+/− myocytes grown in fragment
  contraction frequency: significantly increased
[5]; Agrn−/− cells grown in fragment
  contraction frequency: no effect
[6]
  effect on C-Ag95z8-induced Fos expression: completely inhibited
[7]; 10 nM C-Ag15 with 5 nM C-Ag95z0 in growth medium
  rescue by C-Ag95z0 blocked: 54%
[7]; up to 10 nM, wild-type or heterozygous agrin-deficient neurons
  effect on glutamate-induced expression of c-fos: no effect

From patent US20100095387A1, “METHODS AND REAGENTS FOR SCREENING NEW DRUGS AND FOR TREATING ION PUMP ASSOCIATED DISORDERS AND DISEASES” (priority 2005, published 2010)
